# From patent publication US20260098088A1 (DISC MEDICINE, published 2026)
# Positions count from the first letter of the chain named.
# T1: membrane-bound human RGMc (human, UniProt Q6ZVN8 36-400)
# T1 sequence: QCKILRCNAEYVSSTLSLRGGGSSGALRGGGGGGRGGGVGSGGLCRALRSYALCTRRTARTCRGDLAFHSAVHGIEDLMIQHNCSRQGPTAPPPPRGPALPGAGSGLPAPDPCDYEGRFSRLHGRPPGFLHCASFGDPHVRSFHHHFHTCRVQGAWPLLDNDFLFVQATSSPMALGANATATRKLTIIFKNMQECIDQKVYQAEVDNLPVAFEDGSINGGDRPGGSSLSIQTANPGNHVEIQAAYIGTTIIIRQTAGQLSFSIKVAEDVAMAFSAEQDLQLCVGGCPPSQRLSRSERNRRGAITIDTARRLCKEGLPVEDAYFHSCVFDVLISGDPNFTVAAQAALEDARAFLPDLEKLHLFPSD
# T2: membrane-bound human RGMa (human, UniProt Q96B86 169-424)
# T2 sequence (looked up): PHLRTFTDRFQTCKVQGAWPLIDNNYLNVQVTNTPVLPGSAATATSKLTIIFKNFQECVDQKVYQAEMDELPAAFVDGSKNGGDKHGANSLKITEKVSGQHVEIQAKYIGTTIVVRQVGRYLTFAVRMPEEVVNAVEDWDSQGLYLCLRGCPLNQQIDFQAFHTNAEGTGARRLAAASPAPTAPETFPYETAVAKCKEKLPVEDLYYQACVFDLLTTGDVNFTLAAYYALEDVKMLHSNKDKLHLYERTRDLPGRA
# B1: hHA-008 (antibody, human IgG1, kappa, L234A L235A)
# heavy: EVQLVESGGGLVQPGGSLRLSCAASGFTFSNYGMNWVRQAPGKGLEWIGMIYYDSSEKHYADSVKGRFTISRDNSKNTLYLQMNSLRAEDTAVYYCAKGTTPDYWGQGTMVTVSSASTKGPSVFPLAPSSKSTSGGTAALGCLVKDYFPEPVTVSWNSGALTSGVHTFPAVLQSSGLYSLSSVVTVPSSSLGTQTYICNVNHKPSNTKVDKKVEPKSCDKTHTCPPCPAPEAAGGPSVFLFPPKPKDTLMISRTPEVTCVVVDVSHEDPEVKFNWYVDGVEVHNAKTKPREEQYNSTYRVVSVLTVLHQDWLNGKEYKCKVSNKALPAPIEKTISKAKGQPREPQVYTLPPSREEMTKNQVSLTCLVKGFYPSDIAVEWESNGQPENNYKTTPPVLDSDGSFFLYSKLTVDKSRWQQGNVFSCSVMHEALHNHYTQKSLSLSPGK
# light: DVVLTQSPLSLPVTLGQPASISCRSSQSLEESDGYTFLHWFQQRPGQSPRLLIYEVSTRFSGVPDRFSGSGSGTDFTLKISRVEAEDVGVYYCFQATHDPLTFGQGTKLEIKRTVAAPSVFIFPPSDEQLKSGTASVVCLLNNFYPREAKVQWKVDNALQSGNSQESVTEQDSKDSTYSLSSTLTLSKADYEKHKVYACEVTHQGLSSPVTKSFNRGEC
# B2: hHA-011 (antibody, human IgG1, kappa, L234A L235A, V domains shown)
# VH: EVQLVESGGGLVQPGGSLRLSCAASGFTFSNYGMNWVRQAPGKGLEWIGMIYYDSSEKHYADSVKGRFTISRDNSKNTLYLQMNSLRAEDTAVYYCAKGSTPDYWGQGTMVTVSS
# VL: DVVLTQSPLSLPVTLGQPASISCRSSQSLEDSDGGTFLEWFQQRPGQSPRLLIYDVSSRFSGVPDRFSGSGSGTDFTLKISRVEAEDVGVYYCFQATHDPLSFGQGTKLEIKR
# B3: hHA-004 (antibody, human IgG1, kappa, L234A L235A, V domains shown)
# VH: B2 VH with V37I, S100T
# VL: B2 VL with D31S, G35D, S58T, A96V, L101V, S102T
# B4: hHA-009 (antibody, human IgG1, kappa, L234A L235A, V domains shown)
# VH: B2 VH with S100T
# VL: B2 VL with E30A, G35D, E39H, D55A, S58H, L101V, S102T
# Target: T1, membrane-bound human RGMc
# Experiment: cell-based or functional assay
row,Binder,"IC50 (nM), BMP reporter assay for RGMc"
1,B1,0.377 nM
2,B2,0.0554 nM
3,B3,0.312 nM
4,B4,1.36 nM

# Target: T1, membrane-bound human RGMc
# Experiment: cell-based or functional assay
# Remark: another data set of the same source
row,Binder,Potency on membrane hRGMc (RGMc/BMP reporter assay) IC50
1,B1,0.37 nM
2,B2,0.52 nM
3,B3,0.31 nM
4,B4,1.36 nM

# Target: T2, membrane-bound human RGMa
# Experiment: cell-based or functional assay
row,Binder,Potency on membrane hRGMa (RGMa/BMP reporter assay) IC50
1,B2,1.7 nM
2,B3,2 nM
